{"source": "patent US20090012494A1", "about": "“I[…] OF BIOLOGICAL AGENTS” (NanoPass Technologies Ltd., priority 2006, published 2009)", "molecular_target": "T1, Insulin from Porcine Pancreas (antigen) (Sus scrofa, UniProt P01315)", "T1 construct": "Insulin from Porcine Pancreas; purchased SIGMA 1-5523; host or cells: porcine pancreas (tissue-derived)", "T1 sequence (P01315 25-54 limits assumed)": "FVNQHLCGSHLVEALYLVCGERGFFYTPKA", "T1 sequence (P01315 88-108 limits assumed)": "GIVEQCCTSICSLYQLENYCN", "experiment": "Guinea pig ID immunization with porcine insulin; antigen/antibody complex by Dextran coated Charcoal Radioimmunoassay", "type": "in vivo, Dunkin Hartley male Guinea Pigs", "protocol": "Various animals (e.g., Guinea pigs) are used in industry to produce primary and secondary antibodies for biological and clinical research, based on immunoassay methods (e.g. ELISA). In some of these animals the specific antigen is injected intradermally, in order to achieve a larger and/or faster immune response (antibodies production). After the primary immunization, several immunization boosters are given at different time intervals, and blood is collected. The antibodies production level is measured by measuring the antigen/antibody complex formation levels, in different dilution levels, using conventional immunoassay methods. Usually, a fixed cut-off value (percentage of antigen/antibodies complex formation in a specific dilution level) must be achieved.\n18 Dunkin Hartley male Guinea Pigs were divided into two groups. The animals were anesthetized with a 0.2 ml of Ketamine/Xylazine mixture (1:1 ratio) I.M. Anesthetizing was followed by 0.1 ml I.D. immunization with Insulin from Porcine Pancreas (SIGMA, Cat. No. 1-5523) in a Freund's adjuvant emulsion mixture (SIGMA), injected in 4 sites on the skin. […] After plasma separation, antigen/antibody complex levels were detected in the 2 ml serum sample, using a Dextran coated Charocal Radioimmunoassay method."}
{"substance": "Insulin from Porcine Pancreas: Insulin from Porcine Pancreas (SIGMA) in a Freund's adjuvant emulsion mixture, used as immunizing antigen", "values": [{"measurement": "production time needed to achieve the per-protocol cut-off value, microneedle versus regular injection", "setting": "cut-off 50% Antigen/Antibody complex formation at dilution 1:80 K, microneedle vs regular 25 g needle", "value": 3, "unit": "times shorter"}, {"measurement": "Antigen/Antibody complex formation, Ka [L/mol] values, microneedle versus regular injection", "setting": "dilution level 1:80K, ID microneedles (Nano) vs regular 25 g hypodermic needle, in Freund's adjuvant", "value": "more than 3 times higher"}]}
